Data published in ChEMBL document CHEMBL1145519, “Exploitation of structural and regulatory diversity in glutamate racemases” (Nature, 2007).

Legend:
[1] = substrate: N[C@H](CCC(=O)O)C(=O)O; settings: Helicobacter pylori
Description: Activity of Helicobacter pylori MurI

[2] = substrate: N[C@@H](CCC(=O)O)C(=O)O; settings: Helicobacter pylori
Description: Activity of Helicobacter pylori MurI

[3] = substrate: N[C@H](CCC(=O)O)C(=O)O; settings: Helicobacter pylori; remark: listed apart in the source
Description: (§2) Activity of Helicobacter pylori MurI E151K mutant

[4] = substrate: N[C@@H](CCC(=O)O)C(=O)O; settings: Helicobacter pylori; remark: listed apart in the source
Description: as §2

[5] = substrate: N[C@H](CCC(=O)O)C(=O)O; settings: Helicobacter pylori; remark: listed apart in the source
Description: (§3) Activity of Helicobacter pylori MurI A75T mutant

[6] = substrate: N[C@@H](CCC(=O)O)C(=O)O; settings: Helicobacter pylori; remark: listed apart in the source
Description: as §3

[7] = substrate: N[C@H](CCC(=O)O)C(=O)O; assay: (§1) Activity of Enterococcus faecalis MurI
[8] = substrate: N[C@@H](CCC(=O)O)C(=O)O; assay: as §1

B1: Glutamate racemase (Helicobacter pylori (strain ATCC 700392 / 26695) (Campylobacterpylori)), P56068 (protein)
chain: MKIGVFDSGVGGFSVLKSLLKAQLFDEIIYYGDSARVPYGTKDPTTIKQFGLEALDFFKPHQIKLLIVACNTASALALEEMQKHSKIPVVGVIEPSILAIKRQVKDKNAPILVLGTKATIQSNAYDNALKQQGYLNVSHLATSLFVPLIEESILEGELLETCMRYYFTPLEILPEVVILGCTHFPLIAQKIEGYFMEHFALSTPPLLIHSGDAIVEYLQQNYALKKNACAFPKVEFHASGDVVWLEKQAKEWLKL
With B1 the Km [1] was 63 µM, the kcat [1] was 0.2 s⁻¹ and the Km [2] was 740 µM. For the same protein, the kcat [2] was 1.05 s⁻¹.

B2: Glutamate racemase (Helicobacter pylori (strain ATCC 700392 / 26695) (Campylobacterpylori)), P56068 E151K (protein)
chain: MKIGVFDSGVGGFSVLKSLLKAQLFDEIIYYGDSARVPYGTKDPTTIKQFGLEALDFFKPHQIKLLIVACNTASALALEEMQKHSKIPVVGVIEPSILAIKRQVKDKNAPILVLGTKATIQSNAYDNALKQQGYLNVSHLATSLFVPLIEKSILEGELLETCMRYYFTPLEILPEVVILGCTHFPLIAQKIEGYFMEHFALSTPPLLIHSGDAIVEYLQQNYALKKNACAFPKVEFHASGDVVWLEKQAKEWLKL
B2 was tested, and the Km [3] was 282 µM, the kcat [3] was 0.0833 s⁻¹ and the Km [4] was 7360 µM. It also gave a kcat [4] of 2.27 s⁻¹.

B3: Glutamate racemase (Helicobacter pylori (strain ATCC 700392 / 26695) (Campylobacterpylori)), P56068 A75T (protein)
chain: MKIGVFDSGVGGFSVLKSLLKAQLFDEIIYYGDSARVPYGTKDPTTIKQFGLEALDFFKPHQIKLLIVACNTASTLALEEMQKHSKIPVVGVIEPSILAIKRQVKDKNAPILVLGTKATIQSNAYDNALKQQGYLNVSHLATSLFVPLIEESILEGELLETCMRYYFTPLEILPEVVILGCTHFPLIAQKIEGYFMEHFALSTPPLLIHSGDAIVEYLQQNYALKKNACAFPKVEFHASGDVVWLEKQAKEWLKL
Work on B3 yielded a Km [5] of 275 µM, a kcat [5] of 0.065 s⁻¹ and a Km [6] of 7430 µM. It also gave a kcat [6] of 1.78 s⁻¹.

B4: Glutamate racemase (Enterococcus faecalis (strain ATCC 700802 / V583)), Q836J0 (protein)
chain: MSNQEAIGLIDSGVGGLTVLKEALKQLPNERLIYLGDTARCPYGPRPAEQVVQFTWEMADFLLKKRIKMLVIACNTATAVALEEIKAALPIPVVGVILPGARAAVKVTKNNKIGVIGTLGTIKSASYEIAIKSKAPTIEVTSLDCPKFVPIVESNQYRSSVAKKIVAETLQALQLKGLDTLILGCTHYPLLRPVIQNVMGSHVTLIDSGAETVGEVSMLLDYFDIAHTPEAPTQPHEFYTTGSAKMFEEIASSWLGIENLKAQQIHLGGNEND
Work on B4 yielded a Km [7] of 250 µM, a kcat [7] of 11.7 s⁻¹ and a Km [8] of 1200 µM. For the same protein, the kcat [8] was 25 s⁻¹.
